Source: PMC6829621, “An RBPJ-Drosophila Model Reveals Dependence of RBPJ Protein Stability on the Formation of Transcription–Regulator Complexes” (Cells, 2019)

Target: T1, full-length Drosophila Hairless (Drosophila melanogaster, UniProt Q02308 1-1077)
T1 construct: Hairless (H), Drosophila melanogaster, full length (pEG-HFL); also called pEG-HFL; source: yeast two-hybrid fusion (EGY48 yeast, pEG202 vector)
T1 sequence (looked up): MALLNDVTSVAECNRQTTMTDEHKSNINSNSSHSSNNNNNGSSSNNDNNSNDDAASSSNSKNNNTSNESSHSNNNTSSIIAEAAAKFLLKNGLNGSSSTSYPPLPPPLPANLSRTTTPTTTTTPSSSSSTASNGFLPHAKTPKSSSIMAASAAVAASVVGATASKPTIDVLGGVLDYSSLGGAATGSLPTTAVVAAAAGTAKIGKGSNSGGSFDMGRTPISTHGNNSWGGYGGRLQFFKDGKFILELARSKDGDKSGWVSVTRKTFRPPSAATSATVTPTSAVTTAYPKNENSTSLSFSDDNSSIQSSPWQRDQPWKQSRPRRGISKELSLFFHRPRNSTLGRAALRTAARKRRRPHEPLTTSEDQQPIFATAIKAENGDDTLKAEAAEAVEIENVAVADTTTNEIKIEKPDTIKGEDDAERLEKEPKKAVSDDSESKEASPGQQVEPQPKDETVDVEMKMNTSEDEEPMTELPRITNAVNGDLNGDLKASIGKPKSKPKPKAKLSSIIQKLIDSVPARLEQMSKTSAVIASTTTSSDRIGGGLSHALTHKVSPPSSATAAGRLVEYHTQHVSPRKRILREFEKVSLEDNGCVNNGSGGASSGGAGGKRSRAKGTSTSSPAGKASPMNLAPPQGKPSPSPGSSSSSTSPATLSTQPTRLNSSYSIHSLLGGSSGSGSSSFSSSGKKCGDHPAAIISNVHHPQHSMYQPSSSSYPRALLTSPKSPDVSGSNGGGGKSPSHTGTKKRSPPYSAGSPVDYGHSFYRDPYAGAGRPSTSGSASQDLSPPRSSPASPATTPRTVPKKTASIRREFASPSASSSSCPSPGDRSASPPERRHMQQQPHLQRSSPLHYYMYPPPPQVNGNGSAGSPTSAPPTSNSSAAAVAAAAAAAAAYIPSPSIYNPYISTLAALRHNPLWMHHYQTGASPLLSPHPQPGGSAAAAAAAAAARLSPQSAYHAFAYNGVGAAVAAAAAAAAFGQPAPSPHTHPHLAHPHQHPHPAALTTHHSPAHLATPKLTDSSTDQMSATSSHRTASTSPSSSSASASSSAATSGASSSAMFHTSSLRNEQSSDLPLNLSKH
Assay: two-hybrid; Golemis-Brent system in EGY48 yeast; H fused to LexA DNA-binding domain in pEG202, CSL variants fused to B42-AD in pJG4-5; lacZ reporter pSH18-34; qualitative, and quantified in Miller Units (six clones from two experiments)
Conditions: partners not purified

B1: mouse RBPJ, wild type (natural protein)
chain: not shown
notes: RBPJ, Mus musculus, full-length protein in pJG vector; This is the yeast construct, not the Su(H) exon 1-RBPJ fusion of the flies; also called RBPJ^wt; murine RBPJ; source: yeast two-hybrid fusion (EGY48 yeast, pJG4-5 vector)
interaction strength relative to that between H and Su(H): ~40%
